Our source for the stoichiometry N values is article PMC7604486.

This assay has as its target mouse Rae1–Nup98^GLEBS complex (tags removed) (mouse) (UniProt Q8C570). As to the kind of experiment: SEC.

As usually defined, the stoichiometry N is the number of molecules, sites or subunits per partner or assembly. “MHV-68 ORF10 (wild type, full-length, no tag) (natural protein)” came in with a stoichiometry N of 1.
